IntAct's records for PubMed 20956287

B1: SH2 domain-containing protein 3C (Mus musculus), Q9QZS8-1 (parent)
chain: MTEMPKKTGRKFKFFKFKGLGSLSNLPRSFSLRRSSASASIRSCPEPDTFEATQDDMVTLPKSPPAYARSSDMYSHMGTMPRPNIKKAQKQQAVQKAQEVSRESHLVSRRLPEPPDLEAAKEAGEGTEALLEDTAPSAVEVDPMRELEDLTVDTEKEQVPGDVSPERTAAELEAAGDYVKFSKEKYILDSSPEKLHKELEEELKLSSTDLRSHAWYHGRIPREVSETLVQRNGDFLIRDSLTSLGDYVLTCRWHNQALHFKINKVVVKAGESYTHIRYLFEQESFDHVPALVRYHVGSRKAVSEQSGAIIYCPVNRTFPLRYLEASYGLSQGSSKTASPASPSGSKGSHMKRRSITMTDGLTTDKVTRSDGCPNSTSLPHPRDSIRNCALSMDQIPDLHSPLSPISESPSSPAYSTVTRVHAPSATPSTSAQPASPVARRSSEPQLCPGNTPKPPGESDRAPHASPSHTLCKASPSPSLSSYSDPDSGHYCQLQPPVRGSREQAAGETPRKARGSGERQKELLENGVSDGEWGKTFTVPVVEATSSFNLATFQSQLIPKENRPLEVALLRKVKELLSEVDARTLARHVTKVDCLVARILGVTKEMQTLMGVRWGMELLTLPHGRQLRLDLLERFHTMSIMLAVDILGCTGSAEERAALLHKTIQLAAELRGTMGNMFSFAAVMGALEMAQISRLEQTWMTLRQRHTEGAILYEKKLKPFLKSLNEGKEGPPLSNTTFPHVLPFITLLECDSAPAEGPEPWGSTEHGVEVVLAHLEAARTVAHHGGLYHTNAEVKLQGFQARPELLEVFSTEFQMRLLWGSQGANSSQAWRYEKFDKVLTALSHKLEPAIRSSEL
partner: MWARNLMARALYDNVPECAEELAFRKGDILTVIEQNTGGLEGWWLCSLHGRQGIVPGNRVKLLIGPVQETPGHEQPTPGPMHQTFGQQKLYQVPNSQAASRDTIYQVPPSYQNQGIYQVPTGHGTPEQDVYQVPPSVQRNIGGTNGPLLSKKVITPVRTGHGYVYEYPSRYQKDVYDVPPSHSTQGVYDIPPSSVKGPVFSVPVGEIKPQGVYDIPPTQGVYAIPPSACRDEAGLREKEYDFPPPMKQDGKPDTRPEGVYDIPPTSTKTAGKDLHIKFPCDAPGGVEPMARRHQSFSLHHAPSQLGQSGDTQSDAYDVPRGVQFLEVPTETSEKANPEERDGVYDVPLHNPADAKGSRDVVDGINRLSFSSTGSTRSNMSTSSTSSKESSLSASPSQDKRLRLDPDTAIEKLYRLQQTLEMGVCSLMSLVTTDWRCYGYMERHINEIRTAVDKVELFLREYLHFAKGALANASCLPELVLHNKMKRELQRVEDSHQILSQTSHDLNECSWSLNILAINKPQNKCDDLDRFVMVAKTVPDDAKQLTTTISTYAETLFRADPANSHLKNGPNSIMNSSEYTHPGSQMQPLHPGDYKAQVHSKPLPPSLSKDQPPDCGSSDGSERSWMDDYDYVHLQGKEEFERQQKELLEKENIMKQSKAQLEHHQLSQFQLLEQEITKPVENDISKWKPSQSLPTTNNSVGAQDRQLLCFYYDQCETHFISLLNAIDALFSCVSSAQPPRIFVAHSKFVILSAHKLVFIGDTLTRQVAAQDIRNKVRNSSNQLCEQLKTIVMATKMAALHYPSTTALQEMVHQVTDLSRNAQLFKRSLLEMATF

Variants of: B1
Conditions: with casl_mouse Nedd9, O35177

Variant	effect of a mutation on the interaction
Y787E	disrupting interaction
